# Experimental data: article PMC6458054 (Nature, 2017)
# What was measured:
# [1] = biological target: full-length (FL) His-ASCC3 (human, UniProt Q8N3C0 1-2202); test: pull-down
# [2] = biological target: N-terminally deleted His-ASCC3 (human, UniProt Q8N3C0 401-2202); test: pull-down
# Chain of N-terminally deleted His-ASCC3 (Q8N3C0 401-2202, stated change not applied): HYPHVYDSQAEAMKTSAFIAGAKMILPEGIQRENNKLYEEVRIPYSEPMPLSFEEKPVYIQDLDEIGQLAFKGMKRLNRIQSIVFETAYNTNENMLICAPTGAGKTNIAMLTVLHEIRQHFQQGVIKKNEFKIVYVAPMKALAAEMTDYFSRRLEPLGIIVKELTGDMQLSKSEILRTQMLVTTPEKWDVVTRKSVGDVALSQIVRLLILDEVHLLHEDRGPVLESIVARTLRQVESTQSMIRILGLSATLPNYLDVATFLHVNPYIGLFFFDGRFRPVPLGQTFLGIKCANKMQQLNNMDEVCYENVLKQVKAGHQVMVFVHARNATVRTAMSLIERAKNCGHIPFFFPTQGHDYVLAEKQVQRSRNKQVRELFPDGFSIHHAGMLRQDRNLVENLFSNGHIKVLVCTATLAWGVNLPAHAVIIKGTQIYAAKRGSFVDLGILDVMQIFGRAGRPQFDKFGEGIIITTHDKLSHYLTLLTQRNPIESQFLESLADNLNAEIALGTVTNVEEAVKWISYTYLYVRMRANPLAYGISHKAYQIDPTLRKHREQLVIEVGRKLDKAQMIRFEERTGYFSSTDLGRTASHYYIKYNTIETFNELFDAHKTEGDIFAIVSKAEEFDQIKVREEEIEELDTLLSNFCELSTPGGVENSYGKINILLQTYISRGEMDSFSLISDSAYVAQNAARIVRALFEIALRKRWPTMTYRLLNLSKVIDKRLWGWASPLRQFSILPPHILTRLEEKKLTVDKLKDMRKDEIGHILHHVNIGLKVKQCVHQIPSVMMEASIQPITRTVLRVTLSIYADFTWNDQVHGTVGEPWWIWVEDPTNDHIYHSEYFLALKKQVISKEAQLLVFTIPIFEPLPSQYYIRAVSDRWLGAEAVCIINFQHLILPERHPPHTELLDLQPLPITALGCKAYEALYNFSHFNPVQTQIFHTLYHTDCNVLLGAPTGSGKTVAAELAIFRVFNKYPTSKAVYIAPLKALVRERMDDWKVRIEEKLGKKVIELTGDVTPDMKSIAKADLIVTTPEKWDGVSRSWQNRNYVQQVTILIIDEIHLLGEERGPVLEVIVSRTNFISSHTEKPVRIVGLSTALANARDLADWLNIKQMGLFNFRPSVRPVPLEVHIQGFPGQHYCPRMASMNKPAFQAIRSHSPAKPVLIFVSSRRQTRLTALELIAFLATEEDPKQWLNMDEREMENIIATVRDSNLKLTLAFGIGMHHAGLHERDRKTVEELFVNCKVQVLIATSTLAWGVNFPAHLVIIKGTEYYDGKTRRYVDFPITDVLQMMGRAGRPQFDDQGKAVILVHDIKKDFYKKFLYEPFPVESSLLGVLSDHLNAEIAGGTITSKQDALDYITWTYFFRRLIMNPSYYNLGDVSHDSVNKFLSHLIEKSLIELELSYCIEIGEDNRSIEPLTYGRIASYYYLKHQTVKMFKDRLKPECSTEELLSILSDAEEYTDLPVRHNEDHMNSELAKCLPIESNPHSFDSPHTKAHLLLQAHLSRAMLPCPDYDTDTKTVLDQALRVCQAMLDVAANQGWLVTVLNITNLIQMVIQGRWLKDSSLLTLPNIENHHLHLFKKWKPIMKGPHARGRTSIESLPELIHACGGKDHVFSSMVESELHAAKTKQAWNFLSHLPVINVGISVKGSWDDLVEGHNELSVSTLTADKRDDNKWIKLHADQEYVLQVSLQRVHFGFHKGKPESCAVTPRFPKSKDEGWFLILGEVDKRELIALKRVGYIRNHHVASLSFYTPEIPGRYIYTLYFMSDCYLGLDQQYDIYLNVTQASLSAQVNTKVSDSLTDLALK
# Chain of full-length (FL) His-ASCC3 (Q8N3C0 whole entry): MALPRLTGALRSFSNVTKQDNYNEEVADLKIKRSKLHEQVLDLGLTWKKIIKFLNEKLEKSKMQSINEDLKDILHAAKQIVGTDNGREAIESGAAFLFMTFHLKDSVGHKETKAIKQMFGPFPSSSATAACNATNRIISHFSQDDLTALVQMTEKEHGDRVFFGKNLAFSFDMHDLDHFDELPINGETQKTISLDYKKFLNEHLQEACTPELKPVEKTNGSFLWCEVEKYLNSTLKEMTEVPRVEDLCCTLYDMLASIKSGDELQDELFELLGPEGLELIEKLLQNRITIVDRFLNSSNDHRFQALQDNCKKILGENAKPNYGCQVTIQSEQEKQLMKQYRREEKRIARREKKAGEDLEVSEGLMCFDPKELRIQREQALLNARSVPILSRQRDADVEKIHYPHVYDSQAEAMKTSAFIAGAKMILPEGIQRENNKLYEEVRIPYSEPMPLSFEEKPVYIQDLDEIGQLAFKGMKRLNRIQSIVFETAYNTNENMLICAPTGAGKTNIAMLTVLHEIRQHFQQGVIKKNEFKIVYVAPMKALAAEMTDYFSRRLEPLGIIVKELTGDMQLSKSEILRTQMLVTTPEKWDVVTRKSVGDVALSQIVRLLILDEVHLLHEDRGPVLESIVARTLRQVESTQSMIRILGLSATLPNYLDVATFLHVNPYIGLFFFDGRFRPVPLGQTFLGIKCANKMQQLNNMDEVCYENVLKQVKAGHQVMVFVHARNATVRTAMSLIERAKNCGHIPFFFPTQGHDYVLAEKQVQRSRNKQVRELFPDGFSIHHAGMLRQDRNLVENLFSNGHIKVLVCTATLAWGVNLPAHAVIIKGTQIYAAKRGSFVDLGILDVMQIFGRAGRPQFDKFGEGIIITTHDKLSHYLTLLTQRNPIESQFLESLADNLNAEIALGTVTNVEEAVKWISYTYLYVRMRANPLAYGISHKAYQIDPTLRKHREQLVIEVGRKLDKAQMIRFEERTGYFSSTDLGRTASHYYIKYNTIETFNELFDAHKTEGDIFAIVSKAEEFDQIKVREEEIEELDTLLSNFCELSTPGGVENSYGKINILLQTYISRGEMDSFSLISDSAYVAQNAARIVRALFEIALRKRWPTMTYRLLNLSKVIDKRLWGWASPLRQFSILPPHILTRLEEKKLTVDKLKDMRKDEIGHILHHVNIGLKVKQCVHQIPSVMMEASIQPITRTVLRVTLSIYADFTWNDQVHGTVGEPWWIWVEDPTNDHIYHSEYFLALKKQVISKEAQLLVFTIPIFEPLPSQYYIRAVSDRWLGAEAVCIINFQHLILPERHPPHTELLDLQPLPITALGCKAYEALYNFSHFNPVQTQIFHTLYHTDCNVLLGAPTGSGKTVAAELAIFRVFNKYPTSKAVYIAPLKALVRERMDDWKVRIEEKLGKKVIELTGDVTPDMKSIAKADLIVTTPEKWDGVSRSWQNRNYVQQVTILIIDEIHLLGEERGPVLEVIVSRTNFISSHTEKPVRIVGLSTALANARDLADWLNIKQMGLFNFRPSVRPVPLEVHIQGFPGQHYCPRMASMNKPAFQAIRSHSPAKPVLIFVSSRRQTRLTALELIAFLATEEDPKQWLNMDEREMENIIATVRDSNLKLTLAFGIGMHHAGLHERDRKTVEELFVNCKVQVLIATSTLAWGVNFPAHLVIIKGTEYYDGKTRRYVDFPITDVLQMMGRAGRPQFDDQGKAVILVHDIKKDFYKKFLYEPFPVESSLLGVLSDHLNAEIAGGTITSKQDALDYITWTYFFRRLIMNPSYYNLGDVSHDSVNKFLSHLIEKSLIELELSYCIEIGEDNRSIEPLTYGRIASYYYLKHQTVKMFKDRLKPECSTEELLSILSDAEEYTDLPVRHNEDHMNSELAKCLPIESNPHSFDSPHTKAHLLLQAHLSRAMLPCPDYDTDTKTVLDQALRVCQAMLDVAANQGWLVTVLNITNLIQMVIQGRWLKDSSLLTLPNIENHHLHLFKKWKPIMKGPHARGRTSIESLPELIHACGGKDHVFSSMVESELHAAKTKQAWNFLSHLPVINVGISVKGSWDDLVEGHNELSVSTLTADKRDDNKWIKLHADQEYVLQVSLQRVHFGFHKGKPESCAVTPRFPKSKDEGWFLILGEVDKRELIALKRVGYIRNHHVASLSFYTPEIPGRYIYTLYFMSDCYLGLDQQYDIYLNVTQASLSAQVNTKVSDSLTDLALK
binding result [1],binding result [2],Binder
binds,,Flag-ASCC2 (natural protein) MPALPLDQLQITHKDPKTGKLRTSPALHPEQKADRYFVLYKPPPKDNIPALVEEYLERATFVANDLDWLLALPHDKFWCQVIFDETLQKCLDSYLRYVPRKFDEGVASAPEVVDMQKRLHRSVFLTFLRMSTHKESKDHFISPSAFGEILYNNFLFDIPKILDLCVLFGKGNSPLLQKMIGNIFTQQPSYYSDLDETLPTILQVFSNILQHCGLQGDGANTTPQKLEERGRLTPSDMPLLELKDIVLYLCDTCTTLWAFLDIFPLACQTFQKHDFCYRLASFYEAAIPEMESAIKKRRLEDSKLLGDLWQRLSHSRKKLMEIFHIILNQICLLPILESSCDNIQGFIEEFLQIFSSLLQEKRFLRDYDALFPVAEDISLLQQASSVLDETRTAYILQAVESAWEGVDRRKATDAKDPSVIEEPNGEPNGVTVTAEAVSQASSHPENSEEEECMGAAAAVGPAMCGVELDSLISQVKDLLPDLGEGFILACLEYYHYDPEQVINNILEERLAPTLSQLDRNLDREMKPDPTPLLTSRHNVFQNDEFDVFSRDSVDLSRVHKGKSTRKEENTRSLLNDKRAVAAQRQRYEQYSVVVEEVPLQPGESLPYHSVYYEDEYDDTYDGNQVGANDADSDDELISRRPFTIPQVLRTKVPREGQEEDDDDEEDDADEEAPKPDHFVQDPAVLREKAEARRMAFLAKKGYRHDSSTAVAGSPRGHGQSRETTQERRKKEANKATRANHNRRTMADRKRSKGMIPS
,binds,Flag-ALKBH3 (enzyme) MEEKRRRARVQGAWAAPVKSQAIAQPATTAKSHLHQKPGQTWKNKEHHLSDREFVFKEPQQVVRRAPEPRVIDREGVYEISLSPTGVSRVCLYPGFVDVKEADWILEQLCQDVPWKQRTGIREDITYQQPRLTAWYGELPYTYSRITMEPNPHWHPVLRTLKNRIEENTGHTFNSLLCNLYRNEKDSVDWHSDDEPSLGRCPIIASLSFGATRTFEMRKKPPPEENGDYTYVERVKIPLDHGTLLIMEGATQADWQHRVPKEYHSREPRVNLTFRTVYPDPRGAPW
